{
  "source": "patent US20140154252A1",
  "about": "(EMERGENT PRODUCT DEVELOPMENT SEATTLE, published 2014)",
  "binders": {"B1": {"name": "SMIP-sized cleaved fragment (2H7-sss-hIgG) of 2H7-sss-hIgG-H6-2e12 (other)", "chain": "QIVLSQSPAILSASPGEKVTMTCRASSSVSYMHWYQQKPGSSPKPWIYAPSNLASGVPARFSGSGSGTSYSLTISRVEAEDAATYYCQQWSFNPPTFGAGTKLELKDGGGSGGGGSGGGGSSQAYLQQSGAESVRPGASVKMSCKASGYTFTSYNMHWVKQTPRQGLEWIGAIYPGNGDTSYNQKFKGKATLTVDKSSSTAYMQLSSLTSEDSAVYFCARVVYYSNSYWYFDVWGTGTTVTVSEPKSSDKTHTSPPSPAPELLGGSSVFLFPPKPKDTLMISRTPEVTCVVVDVSHEDPEVKFNWYVDGVEVHNAKTKPREEQYNSTYRVVSVLTVLHQDWLNGKEYKCKVSNKALPASIEKTISKAKGQPREPQVYTLPPSRDELTKNQVSLTCLVKGFYPSDIAVEWESNGQPENNYKTTPPVLDSDGSFFLYSKLTVDKSRWQQGNVFSCSVMHEALHNHYTQKSLSLSPGK", "notes": "Cleavage product seen on gels and blots, about 52 kDa; also called cleaved forms of the multivalent constructs; peptide fragment containing (2H7-sss-hIgG), and missing the CD28 scFv BD2 portion; not shown: C-terminal end: cleaved at or near the H6 linker, site not determined"}, "B2": {"name": "2H7-sssIgG P238S/P331S-STD1-2e12 VHVL (bispecific antibody)", "chain": "QIVLSQSPAILSASPGEKVTMTCRASSSVSYMHWYQQKPGSSPKPWIYAPSNLASGVPARFSGSGSGTSYSLTISRVEAEDAATYYCQQWSFNPPTFGAGTKLELKDGGGSGGGGSGGGGSSQAYLQQSGAESVRPGASVKMSCKASGYTFTSYNMHWVKQTPRQGLEWIGAIYPGNGDTSYNQKFKGKATLTVDKSSSTAYMQLSSLTSEDSAVYFCARVVYYSNSYWYFDVWGTGTTVTVSEPKSSDKTHTSPPSPAPELLGGSSVFLFPPKPKDTLMISRTPEVTCVVVDVSHEDPEVKFNWYVDGVEVHNAKTKPREEQYNSTYRVVSVLTVLHQDWLNGKEYKCKVSNKALPASIEKTISKAKGQPREPQVYTLPPSRDELTKNQVSLTCLVKGFYPSDIAVEWESNGQPENNYKTTPPVLDSDGSFFLYSKLTVDKSRWQQGNVFSCSVMHEALHNHYTQKSLSLSPGKNYGGGGSGGGGSGGGGSGNSQVQLKESGPGLVAPSQSLSITCTVSGFSLTGYGVNWVRQPPGKGLEWLGMIWGDGSTDYNSALKSRLSITKDNSKSQVFLKMNSLQTDDTARYYCARDGYSNFHYYVMDYWGQGTSVTVSSGGGGSGGGGSGGGGSGGGGSDIVLTQSPASLAVSLGQRATISCRASESVEYYVTSLMQWYQQKPGQPPKLLISAASNVESGVPARFSGSGSGTDFSLNIHPVEEDDIAMYFCQQSRKVPWTFGGGTKLEIKR", "notes": "Assembled from modules as m10; also called 2H7-IgG-STD1-2E12 HL; 2H7-2E12 HL"}, "B3": {"name": "TRU-015 (Fc fusion, not shown: a dimerising Fc or GST)", "chain": "QIVLSQSPAILSASPGEKVTMTCRASSSVSYMHWYQQKPGSSPKPWIYAPSNLASGVPARFSGSGSGTSYSLTISRVEAEDAATYYCQQWSFNPPTFGAGTKLELKDGGGSGGGGSGGGGSSQAYLQQSGAESVRPGASVKMSCKASGYTFTSYNMHWVKQTPRQGLEWIGAIYPGNGDTSYNQKFKGKATLTVDKSSSTAYMQLSSLTSEDSAVYFCARVVYYSNSYWYFDVWGTGTTVTVS", "notes": "SMIP: scFv-hinge-CH2-CH3; also called 2H7 SMIP; CD20 SMIP (TRU015)"}, "B4": {"name": "2e12 VHVL SMIP (Fc fusion)", "chain": "QVQLKESGPGLVAPSQSLSITCTVSGFSLTGYGVNWVRQPPGKGLEWLGMIWGDGSTDYNSALKSRLSITKDNSKSQVFLKMNSLQTDDTARYYCARDGYSNFHYYVMDYWGQGTSVTVSSGGGGSGGGGSGGGGSGGGGSDIVLTQSPASLAVSLGQRATISCRASESVEYYVTSLMQWYQQKPGQPPKLLISAASNVESGVPARFSGSGSGTDFSLNIHPVEEDDIAMYFCQQSRKVPWTFGGGTKLEIKR", "notes": "SMIP: scFv-hinge-CH2-CH3; also called 2E12IgG-VHVL SMIP; 2e12 HL SMIP; not shown: hinge-CH2-CH3 of human IgG"}},
  "key": {"CD28mIgG [1]": {"biological_target": "T1, CD28mIgG (UniProt P10747 19-152)", "T1 construct": "Bought reagent; the construct is not described; also called CD28Ig (Ancell); CD28 fused to mouse antibody; not shown: mouse Ig part of the bought fusion; not described", "assay": "Western blot, non-reducing, probed with CD28Ig and goat anti-mouse HRP conjugate", "procedure": "(§1) Electrophoresis was performed under non-reducing conditions, and without boiling samples prior to loading. After electrophoresis, proteins were transferred to PVDF membranes using a semi-dry electroblotter apparatus (Ellard, Seattle, Wash.) for 1 hour at 100 mAmp. Membranes were blocked in BLOTTO (5% nonfat milk in PBS) overnight with agitation. FIG. 9A: Membranes were incubated with the AbyD02429.2, a Fab directed to the 2H7 antibody, at 5 μg/ml in BLOTTO for one hour, then washed 3 times for 5 minutes each in PBS-0.5% Tween 20. Membranes were then incubated in 6×His-HRP for one hour at a concentration of 0.5 μg/ml. Blots were washed three times for 15 minutes each in PBST. Wet membranes were incubated with ECL solution for 1 minute, followed by exposure to X-omat film for 20 seconds.\n(§2) FIG. 9B: Membranes were incubated with CD28Ig (Ancell, Bayport, Minn.) at 10 μg/ml in BLOTTO, then washed three times for 15 minutes each in PBS-0.5% Tween 20. Membranes were then incubated in goat anti-mouse HRP conjugate (CalTag, Burlingame, Calif.) at 1:3000 in BLOTTO. Membranes were washed three times, for 15 minutes each, then incubated in ECL solution for 1 minute, followed by exposure to X-omat film for 20 seconds."}, "CD20 [2]": {"biological_target": "T2, CD20 (human, UniProt P11836 1-297)", "T2 construct": "whole, on cells; 2H7 is called murine anti-human CD20; also called CD20 presented on WIL-2S cells; CD20 on Ramos, BJAB, SU-DHL-6 and DoHH2 B cells", "T2 sequence (looked up)": "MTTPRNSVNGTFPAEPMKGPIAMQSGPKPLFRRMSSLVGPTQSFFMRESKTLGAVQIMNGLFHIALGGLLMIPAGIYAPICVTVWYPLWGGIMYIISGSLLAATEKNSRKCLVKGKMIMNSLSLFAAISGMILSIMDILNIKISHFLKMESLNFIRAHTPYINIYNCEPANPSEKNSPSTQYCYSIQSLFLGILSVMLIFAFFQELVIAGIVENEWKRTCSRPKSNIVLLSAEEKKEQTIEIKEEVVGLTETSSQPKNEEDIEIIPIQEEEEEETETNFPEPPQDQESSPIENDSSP", "assay": "flow cytometry on WIL2-S cells (CD20), purified protein at 5 ug/mL, FITC goat anti-human IgG 1:100", "procedure": "Each of the proteins was tested for binding at 5 μg/ml, and binding detected with FITC goat anti-human IgG at 1:100. Control is FITC goat anti-human IgG alone. See the description for FIG. 2 above for more complete descriptions of the modules of the molecules tested."}, "CD28mIgG [3]": {"biological_target": "T1, CD28mIgG", "assay": "Western blot of non-reduced protein probed with CD28 murine IgG, then goat anti-mouse HRP", "procedure": "as §1, §2"}, "CD20 [4]": {"biological_target": "T2, CD20", "assay": "sandwich flow cytometry: 2e12HL on WIL-2S cells (CD20), then CD28mIgG, then FITC anti-mouse"}},
  "data": [
    {"binder": "B1", "values": [
      {"measurement": "binding result", "setting": "CD28mIgG [1]", "value": "no binding (tested: CD28Ig at 10 µg/ml)"}
    ]},
    {"binder": "B2", "values": [
      {"measurement": "binding result", "setting": "CD20 [2]", "value": "binds"}
    ]},
    {"binder": "B3", "values": [
      {"measurement": "binding result", "setting": "CD28mIgG [3]", "value": "no binding"}
    ]},
    {"binder": "B4", "values": [
      {"measurement": "binding result", "setting": "CD20 [4]", "value": "no binding (tested: 5 ug/ml)"}
    ]}
  ]
}
